Numbered stars: 1 amine (or outer) side, 2 acyl side, 3 side chain; on linkers, the order of the positions; unused ones are H or OH. Square brackets hold non-standard residues; d marks the D form. Side chains are listed from the residue outwards. Ends that are not written are not given here. * marks the point of attachment. γGlu = O=C(O)[C@H](CCC(=O)[*:2])N[*:1]; Palmitoyl = CCCCCCCCCCCCCCCC(=O)*; Aib = CC(C)(N)C(=O)O
What was measured:
[1] = target: human glucagon-like peptide 1 receptor (human, UniProt P43220 24-463); assay: cell-based or functional assay
human glucagon receptor = human glucagon receptor (human, UniProt P47871 26-477); assay: cell-based or functional assay

Sequence of human glucagon-like peptide 1 receptor (P43220 24-463): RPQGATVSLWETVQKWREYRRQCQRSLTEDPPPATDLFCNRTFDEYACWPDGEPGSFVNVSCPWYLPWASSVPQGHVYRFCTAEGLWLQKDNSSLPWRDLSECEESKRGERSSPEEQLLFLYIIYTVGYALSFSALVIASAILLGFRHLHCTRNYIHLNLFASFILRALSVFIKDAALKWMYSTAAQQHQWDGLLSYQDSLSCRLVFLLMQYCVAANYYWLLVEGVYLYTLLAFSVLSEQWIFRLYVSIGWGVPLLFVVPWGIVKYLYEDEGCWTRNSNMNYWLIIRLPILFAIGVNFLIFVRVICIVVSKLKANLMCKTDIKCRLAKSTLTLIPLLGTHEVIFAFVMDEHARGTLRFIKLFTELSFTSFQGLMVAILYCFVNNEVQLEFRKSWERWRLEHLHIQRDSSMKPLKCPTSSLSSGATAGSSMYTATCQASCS

Row | Binder | GLP-1R EC50 (nM), cAMP formation in HEK293 cells expressing human GLP-1-R [1] [nM] | GLUR EC50 (nM), cAMP formation in HEK293 cells expressing human Glucagon-R (human glucagon receptor) [nM]
1 | H-HSQGTFTSDYSKYLDSKAAQDFVEWLLRA-NH2 [L006-0171] | 0.37 | 0.78
2 | H-HSQGTFTSDYSKYLDSKAAHDFVKWLLRA-NH2 [L006-0212] | 0.76 | 1.23
3 | H-HSQGTFTSDYSKYLDKKAAHDFVEWLLRA-NH2 [L006-0239] | 0.98 | 1.05
4 | H-HSQGTFTSDYSKYLDSKAAKDFVEWLLRA-NH2 [L006-0208] | 0.57 | 0.55
5 | H-HSQGTFTSDYSKYLDSKAAHDFVQWLLRA-NH2 [L006-0172] | 0.21 | 0.37
6 | H-HSQGTFTSDYSKYLDSKRAHDFVEWLLRA-NH2 [L006-0170] | 0.5 | 0.79
7 | H-HSQGTFTSDYSKYLDSKAAHDFVEWLMNT-NH2 [L006-0176] | 0.44 | 0.57
8 | H-HSQGTFTSDYSKYLDSRAAHDFVEWLLRA-NH2 [L006-0169] | 0.99 | 152
9 | H-HSQGTFTSDYSKYLDSKAAHDFVEWLLRA-OH [L006-0296] | 0.14 | 0.12

Other lines, results leading:

Row | GLP-1R EC50 (nM), cAMP formation in HEK293 cells expressing human GLP-1-R [1] [nM] | GLUR EC50 (nM), cAMP formation in HEK293 cells expressing human Glucagon-R (human glucagon receptor) [nM] | Binder
10 | 0.05 | 0.05 | H-HSQGTFTSDYSKYLDSKAAHDFVEWLLRA-NH2 [ZP2669]
11 | 0.08 | 0.8 | H-HSQGTFTSDYSKYLDSKAARDFVRWLKLA-NH2 [ZP2668]
12 | 0.04 | 0.08 | H-HSQGTFTSDYSKYLDSLAAQDFVQWLLNT-NH2 [ZP2753]
13 | 0.02 | 0.07 | H-HSQGTFTSDYSKYLDSKAAQDFVQWLMNT-NH2 [ZP2667]
14 | 0.09 | 0.11 | H[dS]QGTFTSDYSKYLDSKAAHDFVEWLLRA-NH2 [ZP2866]
15 | 0.103 | 0.085 | HSQGTFTSDYSKYLDSK([γGlu-Palmitoyl])AAHDFVEWLLRA-NH2 [ZP2872]
16 | 0.08 | 0.06 | H[Aib]QGTFTSDYSKYLDSKAAHDFVEWLLRA-NH2 [ZP2867]
